# Reference: a protein production outcome set (Wang et al. 2014)
# Test: label from the status in PepcDB records
# 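Further: failed if final PepcDB status was selected cloned or expressed and not failed if soluble or beyond.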
row,Sequence,protein production
1,MASLRLPAQLVTRGNLIHHNSSSSSSGRLSWRRSLTPENTIPLFPSSSSSSLNRERSIVVPVTCSAAAVNLAPGTPVRPTSILVVGATGTLGRQIVRRALDEGYDVRCLVRPRPAPADFLRDWGATVVNADLSKPETIPATLVGIHTVIDCATGRPEEPIKTVDWEGKVALIQCAKAMGIQKYVFYSIHNCDKHPEVPLMEIKYCTEKFLQESGLNHITIRLCGFMQGLIGQYAVPILEEKSVWGTDAPTRVAYMDTQDIARLTLIALRNEKINGKLLTFAGPRAWTTQEVITLCERLAGQDANVTTVPVSVLRVTRQLTRFFQWTNDVADRLAFSEVLSSDTVFSAPMTETNSLLGVDQKDMVTLEKYLQDYFSNILKKLKDLKAQSKQSDIYF,failed
2,MASNEAGRALPKFGEWDVNDPATADGFTVIFSKAGEDKKTGRSSTKTNSQRKQDGDKPAVKKWLCFTFA,not failed
3,MASNIILFEDIFVVDQLDPDGKKFDKVTRVQATSHNLEMFMHLDVNTEVYPLAVGDKFTLALAPTLNLDGTPDTGYFTPGAKKTLADKYEYIMHGKLYKISERDGKTPKAELYVSFGGLLMLLKGDPAHISHFELDQRLFLLMRKL,failed
4,MASPDGSGSESFRTRRRRNRARFALAAVLTFILVAVGVLALVFYELRPVSLKIAVGPGGGDDLKLVQALAQSFARDRAAVRLVPLVTGGATPSIEAFRDHKADLAVTRADLDLPADAQAVAVLRKNVVVLWAPSSAGKGKKSIKTITDLAGRRVGVIGRTPANVKLFDIILAESGVAPDKVQKEQFATGQLAEMARDPSLDAFLAVGPLDSKITGEAIAATAKARGEPRFLPVDVGDAIAKKYPIYDSEEIPGSIFSTQPARPEDKVDTVSVNHLIVARQSLSSVTVTKLTRQIFAARQQIAREMPLAGKIEAPDTEKDAALPAHRGAAAFIDGTDRTFMERNSDYIWGLVLLLSGLGSAGAWFRSYLTRDEREAGAKMRDRALAMVAKARKAETLEALDALQHEIDKILRDTLDCYDDGAIEDLEPFSLVLEQFHHAVMDRRAALSASGPGLIPVDPATLPAAHA,failed
5,MASPNTTQPEIILSEEKKASLTTQSTSNNTNDGNILEEQKTLTSQQQPTPVPNTERTEDNVIENLKKTDLSNKDENTTISINTSTNTNINSNTNSNTNTNINSNINTDVNTNINTDINTNTNSNTNSNTNTNINTNANTNTNTNEKAQDEKFQYNGDVSKAFLSPPVFHLTEIMHDERCFKKTKGHVTVEINGDICIYGGMLHDKCVENFIRYVPGINLFEKMRLNSNDIVPRAFCSGNVITEDNKKNIIIFGGINEKDEIVDETYKFDFQAKKWELIGNKICPRARYKHASFSFNDFLYIHGGLDVNNSLLADMWCFSKNSWTPIKQIDRIPEPRYAHSLIFSFYGNAKLVFLFGGNKKGYNAALGDTWIFNINTNRWKEITNSSGSKPCARWGHSSQLFDNEWMIIYGGITNGWIDNYALSDMYALNIFTFSWFEVDISTSKNFDRGYYGSLCFLPYKKSLFVFGGTDNSEDHSDVFSMSPLVTYVSYKTLTGKIEQLNTRMKNINETSSENENMNISEFETKITELKEDINKINFMMKDFESKFCGKIKKLEKLNEQCEKLLSKNINTEELQNLEQRIRKLETSNVLMKHDSI,failed
6,MASRGLDLWLDEHVWKRKQEIGVKGENLLLPDLWLDFLQLSPIFQRKLAAVIACVRRLRTQATVYPEEDMCMAWARFCDPSDIKVVILGQDPYHGGQANGLAFSVAYGFPVPPSLRNIYAELHRSLPEFSPPDHGCLDAWASQGVLLLNTILTVQKGKPGSHADIGWAWFTDHVISLLSERLKACVFMLWGAKAGDKASLINSKKHLVLTSQHPSPLAQNSTRKSAQQKFLGNNHFVLANNFLREKGLGEIDWRL,not failed
7,MASRIIFLFSLLIMLGLATGLRGFSALLGFLAFLLLLIIVCQQYRRFLLLFLAILLFLCAWLYGVVQERQNETQLYPLVQSVEGTLISDPELDGDQFSATVKTTDGEKVLIRGRVQAEAEKDKLEMTQIGMVCSFVGQLEIPSEPTNPYQFNYRQFLDNNRIHWIFRTDLTQWQCSDQPTTLFMKVKRWRSEQLQDIYDLASDETAGLIAAFVYGDRSELDGELLSAYQSLGVIHLLAVSGLHVGLVVAAVFYLFIRLGVTRERAYELLLLFLPFYAIVAGAAPSVVRAVGMTMTVLLAFRFQKRLAPIIVLSLVAVIYIIIEPYAIFQLGFQLSFLTTCALLLSSSTLLQAINRPLLSLVKVTFLAQLISMPVILYHFFELPILSVPLNLLFVPVVSFVLLPLSFFVASSLLIHPGVAELPLFILEIIVPIVHQLLLVLNEQSFAAVVIGKPSLNSVFLMMISLIIGWAWLERKEPFKAWGAFSVVLFLIAWQIYSPYWSNEAIVTMIDVGQGDSFLIELPRRKAVYMIDTGGWVTYGEMEPWQERRNTRDIGEQVLTPILKGKGIRGIDKLILTHGHEDHFGGAEGLVRSIKVDEVVYGYKHAEYTEREMEVLSALKKAGASIRFVKSGDQWVIGSSSFRVLSPFGDEEELNDQSVVVYAVIEGVRFLFTGDLEEVGEKRLLEGYGDLKADVLKVGHHGSATSTTDPFLEAVHPVVALISAGRNNLYGHPNQDVLAALEQHETFVLRTDLHGAVKLTIRDGGIYARVMTTD,failed
8,MASRLGKKRLFLVWSCLVSILPGMAQTEKLIDYVNPFVGTDGYGNVYPGAQIPFGGIQMSPDTDSKYYDAASGYKYNHSTLLGFSLTHLSGTGIPDLGDFLFIPGTGEMKLDPGTREEPEKGYRSRYSHEKEWASPNYYAVELSDYGVKAEMTSGVRSGMFRFTYPQSDKAFIMIDMNHTLWQSCEWANLRMENDSTITGYKLVKGWGPERHIYFTATFSKKLTGLRFMQNKKPVIYNTSRFRSSYEAWGKNLMACISFDTKAGEEVIVKTAISSVSTNGAKNNMAELAGLAFDELKAKGEALWEKELGKYTLTADRKTKRTFYTSAYHAALHPFIFQDVDGQFRGLDKNIEKAEGFTNYTVFSLWDTYRALHPWFNLVQQEVNADIANSMLAHYDKSVEKMLPVWSFYGNETWCMIGYHAVSVLADMIVKGVKGFDYERAYEAMKTTAMNPNYDCLPEYRMMGYVPFDKEAESVSKTLEYAYDDYCMAQAAKALGKEDDYRYFLNRALSYQTLIDPETKYMRGKDSQGNWRTPFTPVAYQGPGSVNGWGDITEGFTVQYTWYVPQDVQGYINEAGENWFRNRLDELFTVELPDDIPGAHDIQGRIGAYWHGNEPCHHVAYLYNYLKEPWKCQKWVRTIADRFYGDTPDALSGNDDCGQMSAWYMFNCIGFYPVAPSSNMYNIGSPCVEAITVRMSNGKVIEMVADNWSPKNVYVKELYVNGKKYDKSYLKYEDIRDGVKLRFVMSSKPNYKRAVSDEAVAPSLSLPGKTMKYQANFSEKKKSGNPVFKGWYADPEGVVFGDEYWIYPTYSAPYDEQTFMDAFSSKDLVNWTKHPKVISKENISWLRRALWAPAVLSANDKYYLFFGANDIQNNNEVGGIGVATSDSPAGPFKDALGKPLIDKIVHGAQPIDQFVFKDDDGQYYMYYGGWGHCNMVKMAPDLLSIVPFEDGTMYKEVTPENYVEGPFMLKRNGKYYFMWSEGGWGLPNYSVAYSISDSPFGPFKRVGKILEQDLSVATGAGHHSVIKGAGEDEWYIVYHRRPLGETAANSRATCIDRMYFDENGYIKPVKMTFEGVLPSPLDSTK,failed
9,MASSDRGTSTLQGWHALQTLWRGDQRSVIQGLPHSQLAPAWQLLLLGDGSPTRHLQLLTGEPTAVDVIEMAPIADQDDGAPPPIRAIAGPRLRRQVWLRTASGQRLAYATSWWTQQRVDAYLRDRAQPIWANLADLRTELYRDIQGVEYGDSAALSEAFGQTGPFWGRYYLFWHQGQPLTLIYEVFSPAIATYLGPSTPQPVV,failed
10,MASSKELCSIREWAPLTEVIERIPARLQRGFFPANLNLTCVDATEEFLAMGSDAGIVFWYNRHTGEMQKLKAEVATRITCVRVVNSVEYMVAAGCANGQVSIFQIQKELPRDLDLVAPCTKSRPIERYTIRDLHKCVVSCCEWSKNGMKLYSGDRQGVVVLTELDYQAHLSKSVEILSEAYEIVQLSVRQSYLLVATLYRCIVCQMDAQTSQWNITQVGKKDRKQLIDCGAIFLKKQEANKPQLVCGRPGLRFWVADAAGNVSKTVIFRDAVLRSPTWEIPILNPKQRSEPSGTHHTSASTSSTRHSGLADGDVGYVASSNFRQLYLYDGHDSLLVTHDDATLYVLNLDRLKVEAVARGLRKILDFCVCGKEIFVLEGNRTLLRLAPLPEPPNKTAKVIFNPLMPPPVPVLGSHLSQLESPIELQAEPVLQNAEECFELSPVEQLNLNVPIEIAVESPLTQQNRRLEIFRRIGEMDFEQSIVHTTRKTSVGKPPEASGVGIVEIGHETHELRLPLTNAATLMEASYCQMENNGLASPLDMKAAFLQHLPDALSPTTLQKTVAEKAKTLAAELDLPEVHLAPLSQEELHAVQAQTPQISDPLIRCYPTHLEEASIQTSSRENATNPADDYHVGEPVDGIRSFGVSKRKMAPLKFVLSQPKPTLKLEENRDDEEYTSFLPDFRRAGDPLAIHKETPATSDSNTSSEWEFLDN,failed
11,MASSTDQNLMDLSDKDTREKLSFWDRRVDPMAPLTDRQTDSILELRAAAEETLLPAELPIEDICSLSSRSLRSSFTAALPESTEEVLLQGFQMLELHNHRIETAQQFFSWFSKLQVQMDQDEASKYRKTRDVLNGYQEQCDAILNDVNTALDHLDSLQKQYLFVSTKTGTLHEACEQLLKEQSELVDLAESIQEKLSYFNELENINTKLNSPTLSVNSEGFVPMLSKLDECIEYVSSHPNFKDYPVYLTKFKQCLSKAMQLIKSHTVNTLQNLTGQLSKRDPLGAPSA,failed
12,MASSVLEMIKEEVTCPICLELLKEPVSADCNHSFCRACITLNYESNRNTDGKGNCPVCRVPYPFGNLKPNLHVANIVERLKGFKSIPEEEQKVNICAQHGEKLRLFCRKDMMVICWLCERSQEHRGHQTALIEEVDQEYKEKLQGALRKLMKKAKICDEWQDDLQLQRVDWENQIQINVENVQRQFKGLRDLLDSKENEELQKLKKEKKEVMEKLEESENELEDQTELVRDLISDVEHHLQLSTLEMLQGANCVLRRSQSLSLQQPQSVPQKRKRTFQAPDLKGMLQVYQGLMDIQQYWVHMTLHARNNAVIAINKEKRQIQYRSYNTVPVSEIYHLGVLGYPALSSGKHYWEVDISRSDAWLLGLNDGKCAQPQLHSKEEMGIKKNLHSQIKQNVLFQPKCGYWVIGMKNPSVYNAFDECSITHNSSILVISLPDCPSRVGVFLDRKAGTLSFYDVSNCGALIYRFYDPAFPVEVYPYFNPMKCSEPMTICGPPS,not failed
13,MASTIQALPQEVVYLITAGEVIDSFAAVVRELVENSLDAGANRIVVYLWPQQWRVRVADNGCGMNLDDLQQAASAHSTSKIRSSADLWKIHSLGFRGEALHSLTTLADVEIISRAPENVGWRVVYGDSGKAVHVEATAIAPGTVVTVSNLFASCAARRQGLPTTAQQMKAVQATIQQIALCHPQTTWQVWQNDRIWFTISPAATAGQLIPQFLPQLRPSDLQEIKLEIPNPENPQLSTNNKPNASALALVVGLPDRCHRHRPDWVRVAINGRMIKLPELEQTILAAFHRTLPRDRYPLCFVHLLISPDQINWNRNPAKTEIYLHDLSYWQEQVTQAINQALRISAANIPESVQTTRVSQLLKAAEEKGNYNFNPRNANPADNTQNYLKAVAQVSNTYIVAEHPGGMWLVEQHIAHERVLYEQLCDNWRLIPVEPPIILYQLSPAQVAQLQRIGLDIDIFGEQLWAVRNLPAMLQQREDCAEAILELSWGGDLQTAQVAVACRSAIRNGTPMSLPEMQKLLDDWQRTRNPRTCPHGRPIYLSLDESSLSRFFRRHWVIGKSHGI,failed
14,MASVAAARAVPVGSGLRGLQRTLPLVVILGATGTGKSTLALQLGQRLGGEIVSADSMQVYEGLDIITNKVSAQEQRICRHHMISFVDPLVTNYTVVDFRNRATALIEDIFARDKIPIVVGGTNYYIESLLWKVLVNTKPQEMGTEKVIDRKVELEKEDGLVLHKRLSQVDPEMAAKLHPHDKRKVARSLQVFEETGISHSEFLHRQHTEEGGGPLGGPLKFSNPCILWLHADQAVLDERLDKRVDDMLAAGLLEELRDFHRRYNQKNVSENSQDYQHGIFQSIGFKEFHEYLITEGKCTLETSNQLLKKGIEALKQVTKRYARKQNRWVKNRFLSRPGPIVPPVYGLEVSDVSKWEESVLEPALEIVQSFIQGHKPTATPIKMPYNEAENKRSYHLCDLCDRIIIGDREWAAHIKSKSHLNQLKKRRRLDSDAVNTIESQSVSPDHNKEPKEKGSPGQNDQELKCSV,failed
